Reference: the nanobody polyreactivity screen of Harvey et al. (2022)

Assay: yeast display, Sf9 membrane polyspecificity reagent, FACS + sequencing; frameworks hold sequencing errors
Procedure, shortened: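 Synthetic nanobody libraries on Saccharomyces cerevisiae BJ5465 were galactose-induced for 36–48 hours, stained 1 hour at 4 °C with 10% biotinylated, detergent-solubilized Sf9 membrane reagent and enriched on streptavidin microbeads. FACS then separated cells into low and high (top ~1%) gates by anti-HA (expression) and streptavidin (reagent binding) fluorescence. Genes were colony-PCR amplified, MiSeq 2 × 250 sequenced and CDR-length filtered. A clone's polyreactivity label is that of its gate of origin.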

Sequence	polyreactivity (PSR sort gate)
QVQLVESWGGLDQAGGSLRLSCAASGRILRTYAMGWYRQAPGKERELVAAITWSGGSTYYADSVKGRFTISRDNAKNTVYLQMNSLKPEDTAVYDCNALTPGYRIYDYWGQGTQVTVSS	high polyreactivity
QVQLVESGGGLVQAGGSLRLICDASGLTFGIYTMGWYRQAPAKESELVAAINWIGTRTYYADSVKGRFTISRDNAKNTVYLQMNSLKPEDTAVYYCATVIGYTKRKYDYWGQGTQVTVSS	high polyreactivity
QVQLVESGGGLVQAGGSLRLSCSASGNTIRYYALGWYRQAPGKERELVATITSGGRTYYADSVKGRFTISRDNAKNTVYLQMNSLKPEDTAVYYCAAGSRSDARRYYYWGQGTQVTVSS	low polyreactivity
QVQLVESGGGLVQAGGSHRLSCAASGLTLQRYTLGSYRQAPGKQSELVAAISRSGGGTYYADSVKGRFTISRDNAKNTVYLQMNSVKPEDTAVYYCAARGYTSYKHFGYWGQGTQVTVSS	high polyreactivity
QVQLVESGGGLVQAGGSLRLSCAASGSTYGGYTMGWYRPAPGKVWELVAAIRLSGVSTYYADSVKGRFTISRDNAKNTVYLQMNSLKPEDTAVYYCAARGWYRYGSVYYIGDYWGQGTQVTVSS	high polyreactivity
QVQLVETGGGLVQAGGSLRLSCAASGYILINAMGLYRQAPGKERELVASISWSSGSTYYADSVKGRFTISRDNAKNTVFLQMNSLKPEDTAVYYCAATAWDRWSYRYEYWGQGTQVTVSS	low polyreactivity
QVQLVESGGGLVHAGGSLRLSCASSGSTFAQYALGWYRPAPGKDREFVAAITRGGGRTYYADSVNGRFTISRDNAKYSVYLQMNSLKPEVTAVYYCNAVYRYYPFDYWGQGTQVTVSS	high polyreactivity
KVQLVESGGGLVQAGGSLRLSCADSGIFRYYAMGWYRQAPGKEREFVAAMTRGGSTNYADSVKGRFTISRDNAKNSVYLQMNSLKPEDTEVYYCARDGYREFDWGQGTQVTVSS	high polyreactivity
QVQLVESGGGLVQAGGSHRLSCAASGSIFYYYTMGWYRQAPGKERELVASITGGGSTYYADSVKGRFTISRDHAKNTVYLQMNSLKPEDTAVYYCAAYSLRPRWRREYDYWGQGTQVTVSS	high polyreactivity
QVQLVESGGGLVQAGGSLRLSCAASGSTFIANAMGWYRQAPGKEREFVATISRRGGSTYYADSVKGRFTISRDNAKNTVYLQMNSLKPEDTAVYYCAARPLTYIRFRYYYWGQGTQVSVSS	high polyreactivity
HVQLQESGGGLVQAGGSLRLSCGASGNISYSRSMGCYRQAPGKERELVAAIDRGAITYYADSVKGRFTISRDNAKNTVYLQIYSLKPEDTAVYYCAAVYHDRWDHRYWGQGTQVTVCS	high polyreactivity
QDHHVESGGGLVQARGTLRLSCAASGIIYSYYAMGWFRQAPGKEWELVAAITASGGSTYYADSVKGRFTISRDNAKNTVYLQMNSLKPQDTGVSYCAAGSFFLHLIGYSTVSYGRNYWGQGTQVTVAS	high polyreactivity
QVHLVESVGGLVQAGGSLRLSCAASGRIIYTYAMGWYIQAPGKERELVAAISWSGGSTYYADSVKGRFTISRDNAKNTVYLQMNSLKPEDTAVYYCNAAYYGYENLSKRGYWGQGTQVTVSS	high polyreactivity
QVQLVESGGGLVQAGGSLRLSSASSGNILQGNAMGSYRQAPGKEMELVAAITSDGSTYADSVKGRFTISRDNAQNTVYLQMNSLKPEDTAVFYCNADGITSLPVTALDYWGQGTQVTVSS	low polyreactivity
QVQLVESGGGLVQAGGRLRLSSAASGFIFAYNAMGWYRQGPGKERELVASIRTRGGSTYYADSVKGRFTISRDNAKNTVYLQMNSLKPEDTSVYYCAARPFPRRYDYWGQGSQVTVSS	low polyreactivity
QVQLVESGGGLVQAGGRLRLSCAASASIFRLYAMGWYRQAPGKERELVAAIRWRAGSTYYADSVKGRFTLSRDNAKNTVYLQMNSLKPEETAVNYCAADAISSAWYAKYDYWGQGTQVTGSS	high polyreactivity

Sequence	polyreactivity (PSR sort gate)
QVQLVESGGGLVQAGGSLRLSCAASGSTLGRYALGWYRQAPGKERELVASITWSDDSTYYADSVKGRFTISRDNAKNTVYLQMNSLKPEDTAVYYCAAAGNLYTYRFYYWGQGTQVTVSS	low polyreactivity
QVQLVESGGGLVQAGGSLRLSCAASGIIFKGYAMGWYRQAPGKERELVAAISQSGGSTYYADSVKGRFTISRDNAKNTVYLQMNSLKPEDTAVYYCNARYSRVVPRYYYWGQGTQVTVSS	high polyreactivity
QVQLVESGGGLVQAGGSLRLSCAASGLTFDGYAKGWYRPAPGKERELVAAISSSSGRTYYADSVKGRFTISRDNAKNTVYLQMNSLKPEDTEVYYCNAVTTGVYKDYYYWGQGTQVTVSS	high polyreactivity
QVQLVESGGGLVQGGGSLRLSCAASGRIFTRYTMGWYRPAPGKERELVAASTKRADRTNYADSVKGRFTISRDNAKNTVYLQMNSLKPEDTAVYSCNDAAFSQLRVRYDYWGQGTQVTVSS	low polyreactivity
QVQLVESGGGLVHAGGSLRLSCAASGRTFNRYAMGWYRQAPGKERELVAAISGGGSSTSYADSVKGRFTISRDNAKNTVYLQMNSLKPEDTAVYYCAAKYGGLRYYNMYYWGQGTQVTVSS	low polyreactivity
QVQLVESGGGLVQAGGSLRLSCAASGSNLSAYAMGWYRQAPGKERELVAAISWSGGSTYYADSVKGRFTISRDNAKNTVYFQMNSLKPEDTAVYYCATVNKKWRRYDYWGQGSQVTVSS	high polyreactivity
QVQLVESGGGLVQAGGSLRLSCAASGSTFGDYAMGWYRQGPGKERELVASINQNGGDTYYADSVKGRFTISRDNAKNTVYLQMNSLKPEDTAVYYCAAEAGYYFQTVAIDMGYWGQGTQVTVSS	low polyreactivity
QVQLVESGGGLVQAGGSLRLSCAASGSIFTTNAMGWYRQAPGKERELVARIDRAGSTYYADSVKGRFTISRDNAKNTVYLQMNSLKPEDTSVYYCAVEAVLSRPYATKFDYWGQGTEVTVSS	low polyreactivity
QVQLVESGGGLVQAGGSLRLSCAASGSIFAINAMGWYRQAPGKERELVAGITSGGSTYYADSVKGRFTISRDNAKNTVYLQMNSLKPEDTAVYYCAVQVVRSWLVTYYYWGQGTQVTVSS	high polyreactivity
QFQLVESGGGLVQAGGSLRLSCAASGSTFPHYTMGWYRQAPGKERELVAAIRRSAGSTYYADSVKGRFTISRDNAKNTVYLQMNSLKPEDTAVYYCNTRQRPPYLVKLNYWGQGTQVTVSS	high polyreactivity
QVQLVESGGGLVQAGGSLRLSCHASGYTFYVYALGWYRQPPGKERELVAAIGGGSTNYADSVKGRFTISRDNAKNTVYLQMNSLKPEDTAVYYCAARRYYKFYYWGQGTQVTVSS	high polyreactivity
QVQLVESGGGLVQAGGSLRLSCAASGRTFVWNAMGWYRQAPGKERELVAAIDWSGGSTYYADSVKGRFTISRDNAKNTVYLQMNSLKPEDSAVYYCAKEYWYRALWYNYWGQGTQVTVSS	high polyreactivity
QVQLEESGGGLVQAGGSLRLTCAASGFIFQYYTMGWYRQAPGKERELVASITGTGGSTYYADSVKGRFTISRDNAKNTVYLQMNSLKPEDTAVYYCAAREGWGYEYDYWGQGTQVTVSS	high polyreactivity
QVQLVESGGGLVQAGGSLRLSCAASGRIFRRNTMGWYRQAPGKEREVVAAITSSGGSTYADSVKGRFTISRDNAKNTVYLQMNSLKPEDTAVYYCATYVAYHRGYRTYDHWGQGTQVTVSS	low polyreactivity
QVQLVESGGGLVQAGGSLRLSCAASGIIFYGNAMGWYRQAPGKERELVAAISWSGSSTYYADSVKGRFTISRDNAKNTVYLQMNSLKPEDPAVYYCNKATSSVRYLKYYYWGQGTQVTVSS	high polyreactivity
QVQLVESGARLVQAGGSLRLSCAASGSILGGNAMGWYRQPPGKERELVAAITFSGGGTYYADSVKGRFTISRDNAKNTVYLQMNSLKPEDTAVYYCAADIAGYTYEFDYWGQGTQLTVSS	low polyreactivity
